According to PMC11497264, “SARS‐CoV‐2 Spike Protein‐Derived Cyclic Peptides as Modulators of Spike Interaction with GRP78” (Chembiochem, 2024):
Bridge positions count the residues as written; N and C are the ends.

B1: LCP W, loop-derived cyclic peptide based on spike residues 480-488 of the Wuhan strain (peptide)
peptide: H-CNGVEGFNC-NH2
modifications: disulfide 1-9
SMILES: CC(C)[C@@H]1NC(=O)CNC(=O)[C@H](CC(N)=O)NC(=O)[C@@H](N)CSSC[C@@H](C(N)=O)NC(=O)[C@H](CC(N)=O)NC(=O)[C@H](Cc2ccccc2)NC(=O)CNC(=O)[C@H](CCC(=O)O)NC1=O
notes: also called Wuhan loop peptide; Wuhan peptide
B2: LCP O, loop-derived cyclic peptide based on spike residues 480-488 of the Omicron strain (peptide)
peptide: H-CNGVAGFNC-NH2
modifications: disulfide 1-9
SMILES: CC(C)[C@@H]1NC(=O)CNC(=O)[C@H](CC(N)=O)NC(=O)[C@@H](N)CSSC[C@@H](C(N)=O)NC(=O)[C@H](CC(N)=O)NC(=O)[C@H](Cc2ccccc2)NC(=O)CNC(=O)[C@H](C)NC1=O
notes: also called Omicron loop peptide; Omicron peptide

Biological target: T1, human glucose-regulated protein GRP78 (human, UniProt P11021 19-654)
T1 construct: also called heat shock protein A5; HSPA5; source: Escherichia coli, recombinant; bought: Abcam
T1 sequence (P11021 19-654): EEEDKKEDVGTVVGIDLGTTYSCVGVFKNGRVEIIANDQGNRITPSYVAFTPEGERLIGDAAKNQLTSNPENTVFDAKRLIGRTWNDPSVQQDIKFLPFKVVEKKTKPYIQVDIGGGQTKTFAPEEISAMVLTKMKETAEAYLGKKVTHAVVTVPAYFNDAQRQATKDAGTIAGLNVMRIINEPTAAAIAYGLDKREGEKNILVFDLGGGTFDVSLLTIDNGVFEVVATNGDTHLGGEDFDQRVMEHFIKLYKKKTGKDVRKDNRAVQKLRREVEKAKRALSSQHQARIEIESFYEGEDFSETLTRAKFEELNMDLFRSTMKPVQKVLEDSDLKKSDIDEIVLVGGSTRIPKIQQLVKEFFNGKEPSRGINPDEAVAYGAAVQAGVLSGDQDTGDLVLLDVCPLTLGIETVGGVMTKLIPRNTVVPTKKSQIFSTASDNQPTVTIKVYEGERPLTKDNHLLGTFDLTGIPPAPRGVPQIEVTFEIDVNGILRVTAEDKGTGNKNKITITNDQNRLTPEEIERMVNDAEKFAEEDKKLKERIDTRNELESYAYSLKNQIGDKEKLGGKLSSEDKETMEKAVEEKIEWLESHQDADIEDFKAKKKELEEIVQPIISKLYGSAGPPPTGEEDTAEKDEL
Assay: SPR
Settings: both partners purified

Row | Binder | IC50 [nM] | Kd [nM]
1 | B1 | 763 | 
2 | B2 | 693 | 2000
